Measurements published in article PMC2119678 (The Journal of Cell Biology, 1993).

Biological target: actin from rabbit skeletal muscle (F actin) (rabbit, UniProt P68135 1-377)
Assay: co-sedimentation

B1: transgelin (natural protein)
chain: MANKGPSYGMSREVQSKIEKKYDEELEERLVEWIVVQCGPDVGRPDRGRLGFQVWLKNGVILSKLVNSLYPDGSKPVKVPENPPSMVFKQMEQVAQFLKAAEDYGVTKTDMFQTVDLFEGKDLAAVQRTLMALGSLAVTKNDGHYRGDPNWFMKKAQEHKREFTESQLQEGKHVIGLQMGSNRGASQLAGHSILPRLPHTQPCSSFSPGQASRLRH
stoichiometry N: 6 actin monomers per transgelin
